# Laboratory results: PMC9352664 (Nature Communications, 2022)
# What was measured:
# HiSiaP (P-domain) [1] = target: T1, HiSiaP (P-domain) (Haemophilus influenzae, UniProt P44542, D81R); settings: read-out: affinity; 50 mM Tris, 50 mM NaCl, pH 8; one approximate value printed for all three mutants
# T1 construct: gene siaP
# HiSiaP (P-domain) [2] = target: T2, HiSiaP (P-domain) (Haemophilus influenzae, UniProt P44542, E195R); settings: read-out: affinity; 50 mM Tris, 50 mM NaCl, pH 8; one approximate value printed for all three mutants
# T2 construct: gene siaP
# HiSiaP (P-domain) [3] = target: T3, HiSiaP (P-domain) (Haemophilus influenzae, UniProt P44542, S83R); settings: read-out: affinity; 50 mM Tris, 50 mM NaCl, pH 8; one approximate value printed for all three mutants
# T3 construct: gene siaP
# [4] = target: HiSiaQM (wild type) (Haemophilus influenzae) (UniProt P44543); test: single-molecule TIRF microscopy on solid-supported bilayers; HiSiaQM in DOPC solid-supported bilayers, AF-647-labelled P-domain without sialic acid; 20 mM HEPES, 150 mM NaCl, pH 7.4
# [5] = target: HiSiaQM K273C-biotin (Haemophilus influenzae) (UniProt P44543); test: SPR
# HiSiaQM K273C-biotin = target: T4, HiSiaQM K273C-biotin (Haemophilus influenzae, UniProt P44543, Maleimide-PEG2-biotin on the introduced cysteine K273C)
# T4 chain: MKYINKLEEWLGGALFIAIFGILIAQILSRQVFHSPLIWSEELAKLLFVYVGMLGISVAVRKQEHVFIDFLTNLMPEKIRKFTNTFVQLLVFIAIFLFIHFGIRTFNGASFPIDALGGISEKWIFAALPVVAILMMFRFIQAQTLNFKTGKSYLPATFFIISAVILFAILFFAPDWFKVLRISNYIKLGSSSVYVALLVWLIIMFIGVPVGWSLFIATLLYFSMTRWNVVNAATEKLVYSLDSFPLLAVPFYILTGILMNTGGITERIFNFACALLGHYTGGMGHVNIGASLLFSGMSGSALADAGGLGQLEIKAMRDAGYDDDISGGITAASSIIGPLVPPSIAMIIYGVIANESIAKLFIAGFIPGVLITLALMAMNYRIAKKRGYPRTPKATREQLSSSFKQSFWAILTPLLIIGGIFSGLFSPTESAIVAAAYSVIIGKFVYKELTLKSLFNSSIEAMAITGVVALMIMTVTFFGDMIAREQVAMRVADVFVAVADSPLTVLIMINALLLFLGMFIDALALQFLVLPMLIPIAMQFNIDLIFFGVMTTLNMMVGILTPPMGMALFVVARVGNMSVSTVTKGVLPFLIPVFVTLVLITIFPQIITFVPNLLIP
# HiSiaQM (wild type) [6] = target: T5, HiSiaQM (wild type) (Haemophilus influenzae, UniProt P44543); test: single-molecule TIRF microscopy on solid-supported bilayers; HiSiaQM in DOPC solid-supported bilayers pre-incubated with unlabelled VHHQM3 for at least 30 min, then AF-647-labelled P-domain added; settings: both partners purified
# T5 construct: also called QM-domains; native QM-domains
# HiSiaQM (wild type) [7] = target: T5, HiSiaQM (wild type); test: single-molecule TIRF microscopy on solid-supported bilayers; HiSiaQM in DOPC solid-supported bilayers stained with VHHQM3-AF-555, incubated at least 30 min, bilayer washed 5 times; settings: both partners purified
molecule,measurement,setting,value
CC(=O)N[C@H]1[C@H]([C@H](O)[C@H](O)CO)OC(O)(C(=O)O)C[C@@H]1O (stereo partly shown) [sialic acid],Kd,HiSiaP (P-domain) [1],~50 nM
same,Kd,HiSiaP (P-domain) [2],~50 nM
same,Kd,HiSiaP (P-domain) [3],~50 nM
HiSiaP K254C labelled with AF-647 (from UniProt P44542) (natural protein; other documents disagree on this pair),reduction of P–QM binding events in the absence of sialic acid,[4],50%
HiSiaP (wild type) (from UniProt P44542 24-329) (natural protein),Kd,[5],1000 nM
VHHQM6 (VHH) VHH: QLQLVESGGGLVQAGGSLRLSCTASRVTLNYHDIGWFRQAPGKEREGVSYISSSGGSTKYADFVKGRFTISRDNAKNTVYLQMNSLKPEDTAVYYCARSAAYGSSWLNPSRYDYWGQGTQVTVSS,Kd,HiSiaQM K273C-biotin,0.64 nM
VHHQM3 (VHH) VHH: QLQLVETGGGLVQPGGSLRLSCTASRVTLDYHDIGWFRQAPGKEREGVSYISSSGGSTNYADSVKGRFTISRDNAKNTVYLQMNSLKPEDTAVYYCARSSAYGSSWLNPSRYDYWGQGTQVTVSS,binding result,HiSiaQM (wild type) [6],binds
VHHQM3 S85C labelled with AF-555 (VHH) VHH: QLQLVETGGGLVQPGGSLRLSCTASRVTLDYHDIGWFRQAPGKEREGVSYISSSGGSTNYADSVKGRFTISRDNAKNTVYLQMNCLKPEDTAVYYCARSSAYGSSWLNPSRYDYWGQGTQVTVSS,binding result,HiSiaQM (wild type) [7],binds
VHHQM4 (VHH) VHH: QVQLVETGGGLVQPGGSLRLSCAASAFTYDNYGIGWFRQAPGKEREGVSCISSSGGTVNYADSVKGRFTISRDNAKNTVYLQMNSLKPEDTAVYYCAALKYGSSCRFLRAANFGSWGQGTRVTVSS,Kd,HiSiaQM K273C-biotin,10.4 nM
VHHQM2 (VHH) VHH: QVQLVESGGGLVQPGESLRLSCAASGSTFSSYGMSWVRQAPRKGPEWVSSISASGTLTRYADFVKGRFTVSRDNAKNTLFLQMNSLKPEDTALYYCARGGAPSVVYNRHDWGQGTQVTVSS,Kd,HiSiaQM K273C-biotin,9.83 nM
VHHQM5 (VHH) VHH: QVQLVESGGGLVQPGGSLRLSCATSRFTLNYYDIGWFRQAPGKEREGVSCITSSGGNTNYADSVKGRFTISRDNAKNTVYLQMNSLKPEDTAIYYCAAAKYGSAWPCSSMPLRDFGSWGQGTQVTVSS,Kd,HiSiaQM K273C-biotin,1.06 nM
VHHQM9 (VHH) VHH: QLQLVESGGRSVQAGGSLRLSCAASGRAFTMAWFRQAPGKEREFVAARTWPVEYGYYADSVKDRFTISRDNAKNILYLQMTSLHPEDTAMYYCAASTANRDSVNVRFSDQYAYWGPGTQVTVSV,Kd,HiSiaQM K273C-biotin,0.36 nM
VHHQM7 (VHH) VHH: QVQLVESGGGLVQPGGSLRLSCAASGFTLSYHAIGWFRQAPGKEREGVSFISSSGSSTNYADSVKGRFTISKDNAKNTVYLQMDSLKPEDTAVYYCARSAAYGSSWLNPSRYDYWGQGTQVTVSS,Kd,HiSiaQM K273C-biotin,4.88 nM
